Data taken from patent US20250304996A1.

Legend:
Assay in all cases: cell-based or functional assay
[1] = biological target: SARS-CoV-2 S:G614+Δ19aa spike protein (encoded by pGM907, S-LV v02) (SARS-CoV-2) (UniProt P0DTC2)
[2] = biological target: SARS-CoV-2 S:B.1.1351+Δ19aa spike protein (B.1.351, encoded by pGM970, S-LV v04) (SARS-CoV-2) (UniProt P0DTC2)
[3] = biological target: SARS-CoV-2 S:B.1.1.7+Δ19aa spike protein (encoded by pGM965, S-LV v04) (SARS-CoV-2) (UniProt P0DTC2)

Substance | MM43 IC50 (ug/mL), neutralisation of S-LV transduction [1] | MM43 IC50 (ug/mL), neutralisation of S-LV transduction [2] | R001 IC50 (ug/mL), neutralisation of S-LV transduction [1] | R001 IC50 (ug/mL), neutralisation of S-LV transduction [3]
MM43 neutralising antibody (mouse IgG1, SARS-CoV-2 S neutralising antibody, Sino Biological, Catalogue No. 40591-MM43) | 0.8 µg/mL | 0.5 µg/mL | – | –
R001 neutralising antibody (rabbit IgG, SARS-CoV-2 S neutralising antibody, Sino Biological, Catalogue No. 40592-R001) | – | – | 0.06 µg/mL | 0.32 µg/mL
